Data as given in the nanobody polyreactivity screen of Harvey et al. (2022).

Test: yeast display, Sf9 membrane polyspecificity reagent, FACS + sequencing; frameworks hold sequencing errors
Outline: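 A nanobody's polyreactivity label depends on the gate it was sorted from. Yeast display cells were stained with 10% biotinylated, detergent-solubilized Sf9 membrane reagent for 1 hour at 4 °C, enriched on streptavidin microbeads and sorted by FACS. The low and high (top ~1%) gates were set on anti-HA fluorescence for expression and streptavidin fluorescence for reagent binding.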
With “QVQLVESGGGLVQAGGRLRLSCAASGSIFNRYAMGWYRQAPGKERELVAAISSTGSTYYADSVKGRFTISRDNAKNTVYLQMNSLKPEDTAVYYCNADATHDLLRVDTYEYWGQGTQVTVSS” the “polyreactivity (PSR sort gate)” value was “low polyreactivity”. For “QVQLVESGGGLVQAGGRLRLSCAASGSIFQSYALAWYRQAPGKERELVAVITGGGGSTYYADSVKARFTISRDNAKNTVYLQMNSLKPEDTAVYYCNADFPSFGVIYSTRKDDSWGQGTQVTVSS”, the “polyreactivity (PSR sort gate)” value was “low polyreactivity”. In the case of “QVQLVESGGGLVQAGGRLRLSCAASGSIFSKNVMGWYRQAPGKERELVAAISIGGRTYYADSVKGRFTISRDNAKNTVSLQLNSLKPEDTAVYYCNTRFAKRATVGRYDYWGQGTQVTVSS”, the “polyreactivity (PSR sort gate)” value is reported as “high polyreactivity”. In the case of “QVQLVESGGGLVQAGGRLRLSCAASGSIFYRNAMGWYRQAPGKERELVAAIRYSGDNTYYADSVKGRFTISRDNAKNTVYLQMNSLKPEDTAVYYCAADFPDYEYWGQGTQVTVSS”, the “polyreactivity (PSR sort gate)” value is reported as “high polyreactivity”. In the case of “QVQLVESGGGLVQAGGRLRLSCAASGSIFYSNAMGWYRQAPGKERELVARITWSGGSTYYADSVKGRFTISRDNAKNTVYLQMNSLKPEDTAVYYCNKVIFRYFTTRPTRTYEYWGQGTQVTVSS”, the “polyreactivity (PSR sort gate)” value is reported as “low polyreactivity”. In the case of “QVQLVESGGGLVQAGGRLRLSCAASGSIFYYYAMGWYRQAPGTERELVAAISRGGNTYYADSVKGRFTNSRDNAKNTVYLQMNSLKPEDTAVYYCNARPPNKRYKYGYWGQGTQVTVSS”, the “polyreactivity (PSR sort gate)” value is reported as “high polyreactivity”. For “QVQLVESGGGLVQAGGRLRLSCAASGSILGEYAMGLNRQANGKERELVAAISVGGCSTYYADSVKGRFTISRDNAKNTVYLQMNSLKPVDTAVYYCSAYDYQSEMYYWGQGTQVTVSS”, the “polyreactivity (PSR sort gate)” value was “high polyreactivity”. In the case of “QVQLVESGGGLVQAGGRLRLSCAASGSSFVAYTMGWYRQAPGKERELVAAISRGGSTNYADSVKGRFTISRDNAKNTVYLQMNSLKPEDTAVYYCAAKVWDGQLLYYWGQGTQVTVSS”, the “polyreactivity (PSR sort gate)” value is reported as “low polyreactivity”. With “QVQLVESGGGLVQAGGRLRLSCAASGSTFAWSAMGWYRQAPGKERELVAGIWNTGRTYYADSVKGRFTISRDNAKNTVYLQMNSLKPEDTAVYYCAALYNSPNVTYYYWGQGTQVTVSS” the “polyreactivity (PSR sort gate)” value was “high polyreactivity”. For “QVQLVESGGGLVQAGGRLRLSCAASGSTFKIYAMGWYRQAPGKERELVARITGRGGSTYYADSVKGRFTISRDNAKNTVYLQLNSLKPEDSAVYYCAARVYTYYYDLHKRFYWGHGTQVTVSS”, the “polyreactivity (PSR sort gate)” value was “high polyreactivity”. In the case of “QVQLVESGGGLVQAGGRLRLSCAASGSTIGKYVMGLYRQAPGKERELVAAITNIAGSTYYADSVKGRFTISRDTAKNTVYVQLNSLNPEDTAVYYCAADIEEYYGFDDYDYSYNDYDYWGQGTQVTVSS”, the “polyreactivity (PSR sort gate)” value is reported as “high polyreactivity”. For “QVQLVESGGGLVQAGGRLRLSCAASGSTIGYYTMGWYRQAPGKERELVAAISWSGDSTYYADSVKGRFTISRDNAKNTVYLQMNSLKPEDTAVYYCAKVHYVRRGDSRYDYWGQGTQVTVSS”, the “polyreactivity (PSR sort gate)” value was “high polyreactivity”. With “QVQLVESGGGLVQAGGRLRLSCAASGSTIRTYARGWYRQAPGKERELVAAITNSDGSTYYADSVKGRFTISRDNAKNTVYLQMYSLKPEDTAVYYCAAYYYPLGYDYWGQGTQVTVSS” the “polyreactivity (PSR sort gate)” value was “low polyreactivity”. For “QVQLVESGGGLVQAGGRLRLSCAASGSTLGRYAMGWYRQAPGKERELVASITWSDDSTYYADYVKGRFTISRDNAKNTVYLQMNSLKPEDTAVYYCAAAGNLYTYRFYYWGQGTQVTVSS”, the “polyreactivity (PSR sort gate)” value was “low polyreactivity”. In the case of “QVQLVESGGGLVQAGGRLRLSCAASGSTVRYYAMGGYRQAPVKERELVAAITSGGRTYYADSVKGRFTISRDNAKNTVYLQMNSLKPEDTAVYYCNARRYGSGMDYWGQGTQVTVSS”, the “polyreactivity (PSR sort gate)” value is reported as “low polyreactivity”. For “QVQLVESGGGLVQAGGRLRLSCAASGYIFDDKAMGWYRQAPGKERELVATNYADSVKGRFTISRDNAKNTVYLQMNSLKPEATAVYYCAAEAFYPWTSSRYIAYYYWGQGTQVTVSS”, the “polyreactivity (PSR sort gate)” value was “low polyreactivity”. For “QVQLVESGGGLVQAGGRLRLSCAASGYIFPKNAMGWYRQAPGKERELVAAITGSGGSTYYADSVKGRFTISRDNAKNTVYLQMNSLKPEDTAVYYCAKRSWIEYDYWGQGTQVTVSS”, the “polyreactivity (PSR sort gate)” value was “low polyreactivity”. With “QVQLVESGGGLVQAGGRLRLSCAASGYTFKFNAMGWYRQAPGKETELVAGITRGGGTYADSVKGRFTISRDNAKNTVYLQMNSLKPDDTAVSYCASAWGAPSRFFSAFDYWGQGTQVTVSS” the “polyreactivity (PSR sort gate)” value was “low polyreactivity”. For “QVQLVESGGGLVQAGGRLRLSCAASRRIFDYNDRGWYRQAPGKERELVAAINDDSRTNYADSVKGRFTISRDNAKNTVYLQMNSLKPEDTAVYYCNNVYGRSGIGFDYWGQGTQVTVSS”, the “polyreactivity (PSR sort gate)” value was “low polyreactivity”. With “QVQLVESGGGLVQAGGRLRLSCADSGLIIYYYAMGWYRQAPGKEREFVAAITSSGGSTSYADSVKGRFTISRDNAKNTVYLQMNSLKPEDTAVYYCAARSKSEGGYWGQCTQVTVSS” the “polyreactivity (PSR sort gate)” value was “high polyreactivity”. In the case of “QVQLVESGGGLVQAGGRLRLSCADSGRTYGSNAMGWYRQAPGKERELVAAISGGDTTNYADSVKGRFTISRDNAKNTVYLQMNSLKPEDTAVYYCATDLRPAYDYWGEGTQVTVSS”, the “polyreactivity (PSR sort gate)” value is reported as “low polyreactivity”. In the case of “QVQLVESGGGLVQAGGRLRLSCASSGITFTFNAMGRYTQAPGKEMELVAAITWSGGSTFYADSVKGRFTISRDNAKNSVYLQMNSLIPEDTAVYYCARDTELYVRWLDYWGQGTQVTVSS”, the “polyreactivity (PSR sort gate)” value is reported as “low polyreactivity”. With “QVQLVESGGGLVQAGGRLRLSCPPSGVTFTRNAMGWYRQAPGKERELVAAISSSAGSTSYADSVKGRLTISRDNAKNTVYLQMNSLKPEDTAVYYCATEGSYYSWVGKVGYRYQYHYWGHGTQVTVSS” the “polyreactivity (PSR sort gate)” value was “high polyreactivity”. For “QVQLVESGGGLVQAGGRLRLSCSASGIILPKYTMGGYRQAPGKERELVAAITRSGGSTYYADSVKGRFTISRDNAKNTVYLHMISMKPEDTAVYYCAAERASFRYQDYYIYDYWGQGTEVTVSS”, the “polyreactivity (PSR sort gate)” value was “high polyreactivity”. For “QVQLVESGGGLVQAGGRLRLSCSASGSIFVTYDMGWYRQAPGKERELVAGISGSGSTNYADSVKGRFTISRDNAKNTVYLQMNSLKPEDTAVYYCAAEYEYLWSQYLTDYGYDYWGQGTQVTVSS”, the “polyreactivity (PSR sort gate)” value was “low polyreactivity”. With “QVQLVESGGGLVQAGGRLRLSCSASGSTFYPNAMGWYRQAPGKERELGAAISWSGGSTYYADSVKGRFTISRDNAKKTVDLQMNSLKPEDTAVYYCAAYYYGVRKYDYWGQGTQVTVSS” the “polyreactivity (PSR sort gate)” value was “high polyreactivity”. In the case of “QVQLVESGGGLVQAGGRLRLTCAASGSIFEGYAMGWYRQAPGKERELGARITSDDDSTYYADSVKGRFTISRDNAKNSVYLQMKSLKPEDTAVYYCNAVYYWTSLAMDSWGQGTQVTVSS”, the “polyreactivity (PSR sort gate)” value is reported as “low polyreactivity”. For “QVQLVESGGGLVQAGGRLRLTCAPSGTIIYQYAMGFDRHAPGKERELVAASSTTGGPTYYADSVKGRFTISRDNAKKTVYLQMNSLKPEDTAVYYCAAEKYYGYDYWGQGTQVTVSS”, the “polyreactivity (PSR sort gate)” value was “high polyreactivity”. For “QVQLVESGGGLVQAGGRLRVSCATSGRTFGKYAMGWYRQAPGKERELVATISRSGGSTYYADSVKGRFTISRDNAKNTVYLQMNSLNPVDNAVYYCNAVTSRYIWPPGLDRYHYWGQGTQVTVSS”, the “polyreactivity (PSR sort gate)” value was “high polyreactivity”. With “QVQLVESGGGLVQAGGRLSLICAASGSIFPINAMGWYRQAPGKERELVADITSGGSTNYADSVKGRFTISRDNAKNTVYLQMNSLKPEDTAVYYCAADWRYWRWAFDYWGQGTQVTVSS” the “polyreactivity (PSR sort gate)” value was “high polyreactivity”. For “QVQLVESGGGLVQAGGSHGLSCAASGRTSEKNPMGWYRQAPGIERELVAGISWRGGSTYYADSVKGRFTISRDNAKNTVYLQMNSLKPEDTAFYYCARSGAFSGLDDSWGQGTQVTVSS”, the “polyreactivity (PSR sort gate)” value was “low polyreactivity”. For “QVQLVESGGGLVQAGGSHRFSCGASGSTSTYYAMGCYRQAPGTERELVAAISSGGSTNYADSVKGRFTISRDNAKNTVYLKMNSLKPEETAVYYCATDSGDGEGDYWGQGTQVTVSS”, the “polyreactivity (PSR sort gate)” value was “low polyreactivity”. For “QVQLVESGGGLVQAGGSHRLSCAASARIFYLYAMGWYRQAPGKERELVAAISRSGSSTYYADSVKGRFTISRDNPKNTVYLEMNSLKPEDTAVYYFADLRYRPVHQDHYDYWGQGTQVTVSS”, the “polyreactivity (PSR sort gate)” value was “high polyreactivity”. With “QVQLVESGGGLVQAGGSHRLSCAASGFILAYYAMGWYRQAPGKERELVASINRSGGSTYYADSVKGRFTISRDNAKNTVYFQMNSLKPEDTAVHYCAHTNRGDGQWWYRYYYWGQGTQVTVSS” the “polyreactivity (PSR sort gate)” value was “high polyreactivity”. In the case of “QVQLVESGGGLVQAGGSHRLSCAASGGTFNTNAMGWYRQAPGKERELVATIRGGVITTYADSVKGRFTISRDNAKNTVYLQMNSLKPEDTAVYYFNKDNAPYAVSSIFGARDYWGQGTQVTVSS”, the “polyreactivity (PSR sort gate)” value is reported as “low polyreactivity”. For “QVQLVESGGGLVQAGGSHRLSCAASGIIFPWYVMGWYRQAPGKERELVAAITQSGGSTFYADSLKGRFTISRDNAKNTVYLQMNCLKPEDTAVYYCHTEDFFKFPEMDSWGQGTQLTVSS”, the “polyreactivity (PSR sort gate)” value was “low polyreactivity”. In the case of “QVQLVESGGGLVQAGGSHRLSCAASGIIFSGNAMGWYRQAPGKERELVAAITRGGRTYYADSVKGRFTISRDNAKNTVYLQMNSLKPEDTAVYYCNKRYRYKYDYWGQGTQVTVSS”, the “polyreactivity (PSR sort gate)” value is reported as “high polyreactivity”. For “QVQLVESGGGLVQAGGSHRLSCAASGITFYGNAMGWYRQAPGKERELVAGITSGGNTYYADSVKGRFTISRDNAKNTVYLQMNSLKPEDTAVYYCAAGYFSYRSYYYYRYDYWGQGTQVTVSS”, the “polyreactivity (PSR sort gate)” value was “high polyreactivity”. For “QVQLVESGGGLVQAGGSHRLSCAASGQTVYYYPMGWYRQAPGKEREVVASISTGGNTYYADSVKGRFTISRDNAKNTVYLQMNSLKPEDTAVYYCAAGLYSWSGFASYNSAYGYWGQGTQVTVSS”, the “polyreactivity (PSR sort gate)” value was “low polyreactivity”. With “QVQLVESGGGLVQAGGSHRLSCAASGRIFAYNAMGWYRQAPGKERELVAAISSGGNTYYADSVKGRFTISRDNAKNTVYLQMNSLTPEDTAVYYCNAGVGWHRYYSNYDYWGQGTQVTVSS” the “polyreactivity (PSR sort gate)” value was “low polyreactivity”. For “QVQLVESGGGLVQAGGSHRLSCAASGRIFGCYTMGWYRQAPAKERELVAGITRRGGRTYYADSVKGRFTISRDTAKYTVYLQMNSLKPEDTAVYYCAVRSGVNFYYWGHGTQVTVSS”, the “polyreactivity (PSR sort gate)” value was “high polyreactivity”. For “QVQLVESGGGLVQAGGSHRLSCAASGRIFQRNTMGWYRQAPGKERELVARINYSGGSTYYADSVKGRFTISRDNAKNTVYLQMNSLKPEDTAVYYCAARVWTWSIYYRAGLSSYDYWGQGTQVTVSS”, the “polyreactivity (PSR sort gate)” value was “low polyreactivity”. For “QVQLVESGGGLVQAGGSHRLSCAASGRILVRYAMGCYRHAPGKERELVAAISRGGSTTYADSVKGRFTISRDNAKNTVYLQMNSLKPEDTAFYYCAAGRYPYNRDYWGQGTQVTVSS”, the “polyreactivity (PSR sort gate)” value was “high polyreactivity”.
